Measurements published in IntAct's records for PubMed 22460785.

How the values were obtained:
[1] = target: myh9_human MYH9 (UniProt P35579)
[2] = target: myh9_human MYH9 (UniProt P35579); remark: listed apart in the source

Sequence of myh9_human MYH9 (P35579 whole entry): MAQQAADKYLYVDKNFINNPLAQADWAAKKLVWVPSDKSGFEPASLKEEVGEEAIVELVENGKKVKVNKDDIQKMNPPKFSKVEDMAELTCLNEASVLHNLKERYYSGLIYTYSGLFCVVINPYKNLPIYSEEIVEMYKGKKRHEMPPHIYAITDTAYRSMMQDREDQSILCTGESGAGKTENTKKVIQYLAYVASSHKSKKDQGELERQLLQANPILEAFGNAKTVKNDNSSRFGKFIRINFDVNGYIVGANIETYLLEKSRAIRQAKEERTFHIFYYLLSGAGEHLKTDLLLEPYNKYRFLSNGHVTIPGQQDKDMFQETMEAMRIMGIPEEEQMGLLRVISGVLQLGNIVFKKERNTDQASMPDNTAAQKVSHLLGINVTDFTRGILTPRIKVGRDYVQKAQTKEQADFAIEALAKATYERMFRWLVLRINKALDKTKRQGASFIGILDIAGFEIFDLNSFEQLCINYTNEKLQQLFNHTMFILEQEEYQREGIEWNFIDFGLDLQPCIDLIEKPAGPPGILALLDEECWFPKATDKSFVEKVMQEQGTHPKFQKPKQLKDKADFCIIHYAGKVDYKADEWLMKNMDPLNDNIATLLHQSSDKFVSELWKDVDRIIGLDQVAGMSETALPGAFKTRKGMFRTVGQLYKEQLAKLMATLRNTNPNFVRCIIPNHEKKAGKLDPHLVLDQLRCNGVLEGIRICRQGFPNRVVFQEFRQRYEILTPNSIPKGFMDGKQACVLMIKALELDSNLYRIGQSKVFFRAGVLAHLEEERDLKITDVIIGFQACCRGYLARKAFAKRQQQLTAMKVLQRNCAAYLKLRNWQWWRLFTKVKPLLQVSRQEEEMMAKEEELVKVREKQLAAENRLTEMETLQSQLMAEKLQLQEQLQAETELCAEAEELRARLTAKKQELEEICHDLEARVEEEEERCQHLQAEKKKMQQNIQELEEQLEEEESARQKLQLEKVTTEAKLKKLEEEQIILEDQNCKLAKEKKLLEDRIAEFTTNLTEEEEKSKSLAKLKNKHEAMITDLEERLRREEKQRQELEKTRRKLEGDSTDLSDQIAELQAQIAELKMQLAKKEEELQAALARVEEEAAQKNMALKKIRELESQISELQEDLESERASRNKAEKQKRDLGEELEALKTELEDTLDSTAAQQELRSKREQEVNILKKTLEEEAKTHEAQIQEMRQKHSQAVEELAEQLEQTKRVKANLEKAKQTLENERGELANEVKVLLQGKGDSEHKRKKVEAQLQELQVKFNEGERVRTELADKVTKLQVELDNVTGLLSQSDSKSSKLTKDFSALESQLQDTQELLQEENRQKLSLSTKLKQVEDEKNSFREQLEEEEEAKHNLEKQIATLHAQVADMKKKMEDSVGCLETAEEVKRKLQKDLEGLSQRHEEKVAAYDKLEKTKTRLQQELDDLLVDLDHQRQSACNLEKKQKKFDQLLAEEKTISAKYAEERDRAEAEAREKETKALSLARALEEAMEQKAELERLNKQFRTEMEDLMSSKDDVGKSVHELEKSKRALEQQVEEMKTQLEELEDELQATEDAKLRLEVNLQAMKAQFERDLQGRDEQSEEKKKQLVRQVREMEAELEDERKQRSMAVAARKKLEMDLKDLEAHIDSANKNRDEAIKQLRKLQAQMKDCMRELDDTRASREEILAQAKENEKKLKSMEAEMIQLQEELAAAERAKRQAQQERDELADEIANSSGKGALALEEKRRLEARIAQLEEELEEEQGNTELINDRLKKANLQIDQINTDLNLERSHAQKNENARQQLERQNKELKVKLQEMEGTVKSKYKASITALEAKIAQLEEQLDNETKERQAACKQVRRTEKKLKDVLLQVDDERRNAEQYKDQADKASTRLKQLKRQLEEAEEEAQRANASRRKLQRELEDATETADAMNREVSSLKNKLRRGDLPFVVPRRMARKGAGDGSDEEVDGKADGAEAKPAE
Sequence of Protein S100-A4 (Homo sapiens), P26447 C3S;F45W;C81S;C86S (P26447 whole entry C3S/F45W/C81S/C86S): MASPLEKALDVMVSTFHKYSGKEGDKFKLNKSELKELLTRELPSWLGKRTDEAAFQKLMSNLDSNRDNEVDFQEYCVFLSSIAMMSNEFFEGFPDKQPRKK

**Q.** “Protein S100-A4 (Homo sapiens), P26447 C3S;F45W;C81S;C86S” was tested. Which “effect of a mutation on the interaction” value [1] did it give?
**A.** decreasing interaction strength

**Q.** “Protein S100-A4 (Homo sapiens), P26447 F45W” was tested. Which “effect of a mutation on the interaction” value [2] did it give?
**A.** with no effect
